Test results reported in patent publication US20260108614A1, “IMMOBILIZED ENDOGLYCOSIDASE FUSION PROTEIN AND USE THEREOF” (GENEQUANTUM HEALTHCARE (SUZHOU) CO., LTD., priority 2022, published 2026).

Experiment: Isoelectric point
Assay type: physicochemical
Conditions: method not stated

B1: Halo-Endo S2-His: endoglycosidase fusion protein: Halo tag, Endo S2 and His tag, SEQ ID NO: 1 (protein)
chain: MAEIGTGFPFDPHYVEVLGERMHYVDVGPRDGTPVLFLHGNPTSSYVWRNIIPHVAPTHRCIAPDLIGMGKSDKPDLGYFFDDHVRFMDAFIEALGLEEVVLVIHDWGSALGFHWAKRNPERVKGIAFMEFIRPIPTWDEWPEFARETFQAFRTTDVGRKLIIDQNVFIEGTLPMGVVRPLTEVEMDHYREPFLNPVDREPLWRFPNELPIAGEPANIVALVEEYMDWLHQSPVPKLLFWGTPGVLIPPAEAARLAKSLPNCKAVDIGPGLNLLQEDNPDLIGSEIARWLSTLEISGGGGGSGGGGSMDKHLLVKRTLGCVCAATLMGAALATHHDSLNTVKAEEKTVQTGKTDQQVGAKLVQEIREGKRGPLYAGYFRTWHDRASTGIDGKQQHPENTMAEVPKEVDILFVFHDHTASDSPFWSELKDSYVHKLHQQGTALVQTIGVNELNGRTGLSKDYPDTPEGNKALAAAIVKAFVTDRGVDGLDIDIEHEFTNKRTPEEDARALNVFKEIAQLIGKNGSDKSKLLIMDTTLSVENNPIFKGIAEDLDYLLRQYYGSQGGEAEVDTINSDWNQYQNYIDASQFMIGFSFFEESASKGNLWFDVNEYDPNNPEKGKDIEGTRAKKYAEWQPSTGGLKAGIFSYAIDRDGVAHVPSTYKNRTSTNLQRHEVDNISHTDYTVSRKLKTLMTEDKRYDVIDQKDIPDPALREQIIQQVGQYKGDLERYNKTLVLTGDKIQNLKGLEKLSKLQKLELRQLSNVKEITPELLPESMKKDAELVMVGMTGLEKLNLSGLNRQTLDGIDVNSITHLTSFDISHNSLDLSEKSEDRKLLMTLMEQVSNHQKITVKNTAFENQKPKGYYPQTYDTKEGHYDVDNAEHDILTDFVFGTVTKRNTFIGDEEAFAIYKEGAVDGRQYVSKDYTYEAFRKDYKGYKVHLTASNLGETVTSKVTATTDETYLVDVSDGEKVVHHMKLNIGSGAIMMENLAKGAKVIGTSGDFEQAKKIFDGEKSDRFFTWGQTNWIAFDLGEINLAKEWRLFNAETNTEIKTDSSLNVAKGRLQILKDTTIDLEKMDIKNRKEYLSNDENWTDVAQMDDAKAIFNSKLSNVLSRYWRFCVDGGASSYYPQYTELQILGQRLSNDVANTLKDHHHHHHHHHH
modifications: Halo-Endo S2-His
  isoelectric point: 5.5
